Results: the MegaScale stability set (Tsuboyama et al. 2023)

B1: EHEE_rd2_0196 (parent)
chain: TETRTFDSEEEAKKAQKEAEKQGRTVTITRRDDRWEVRFD

Variants of: B1
Experiment: folding stability dG (cDNA display proteolysis); higher = more stable
Conditions: PBS, room temperature

Folding stability dG [kcal/mol] of substitutions, site by site:
T29: D 1.71; Q 2.59; S 2.73; G 2.02; M 2.48; P 0.016; V 3.16; A 2.36; N 2.45; I 3.19; L 2.53; F 2.3; Y 2.21; K 2.44; E 2.48; R 2.76; W 1.8; H 2.75
R31: N 2.57; S 2.29; Q 2.55; T 2.56; G 1.68; Y 2.57; L 2.9; M 2.78; E 2; V 3.43; H 2.69; D 1.79; F 2.75; P 0.846; I 3.27; W 2.18; K 3.13; A 2.38
R34: Y 3.18; G 3.16; N 2.41; I 3.14; Q 2.96; V 3.14; E 2.41; F 3.14; P 0.669; M 3.14; D 2.03; S 2.76; K 3.51; H 3.13; W 2.79; T 2.7; L 3.13; A 2.81
V26: W 0.253; D 0.12; K 0.184; G 2.61; R 0.117; Q 0.065; L 1.23; E 0.318; S 3; Y 0.849; I 2.08; P 1.87; M 1.18; A 3.4; C 3.6; H 0.258; T 2.76; N 0.69; F 0.841
D33: L 1.71; W 1.34; S 2.36; T 2.09; A 1.96; F 1.55; G 3.39; Y 1.48; Q 2.46; V 1.4; H 2.5; P 1.21; K 2.17; E 2.7; M 1.95; C 2.47; I 1.37; R 1.83; N 3.08
R30: N 2.25; A 2.3; Q 2.81; H 2.59; E 2.02; P 2.06; M 2.8; S 1.94; D 0.983; G 1.71; F 3.33; L 2.83; W 2.68; I 2.46; T 1.91; K 3.11; V 2.5; Y 2.83
T25: Y 2.33; W 2.22
T27: D 1.37; G 1.36; A 2.16; W 1.8; H 2.59; F 1.94; S 2.76; C 3.03; N 2.11; Q 2.52; E 2.03; V 2.88; Y 1.95; M 2; L 1.89; K 2.45; R 2.56; I 2.94; P 0.682
I28: Q 0.41; K 0.714; V 2.83; C 2.46; Y 0.332; R 1.31; M 1.77; F 0.342; G 0.232; H -0.123; L 2.06; A 0.842; P 0.277; N 0.423; D -0.146; T 1.18; S 0.645; E 0.07
D32: F 2.55; Q 2.97; Y 2.19; G 3.98; P 1.75; E 3.07; T 2.06; L 2.63; N 3.29; R 2.48; S 2.45; M 2.61; H 2.83; K 3.01; I 2.11; V 2.29; A 2.92; W 1.84
